Earlier results on one substance are cited in patent US9168216B2, “Carrier comprising one or more di and/or mono-(electron transfer agent) phosphate derivatives or complexes thereof” (priority 2005, dated 2015).

For this data set the following is noted: subcutaneous, 25 μg/kg body weight.

For the substance “PTH: human parathyroid hormone (fragment 1-34)”, the “Time of peak PTH level in rat plasma after injection” value is 40 to 60 min and the “Time to complete turnover of PTH in plasma” value was at most 4 h.
